Biological target: purified rhesus macaque MHC class I molecule Mamu-B*17 with human beta2-microglobulin (rhesus macaque | human)
Experiment: radioligand binding

Binder	IC50 [µM]
LTIEAIENYF [VACV-WR peptide 71NP (LTIEAIENYF), ORF L4R]	8.77
SSPLELFML [VACV-WR peptide 51P (SSPLELFML), ORF E9L]	11.8

Source: paper PMC2765250 (Vaccine, 2009)
